{"source": "paper PMC4957052", "about": "(The Journal of Biological Chemistry, 2016)", "binders": {"B1": {"name": "GST-tagged full-length β-catenin (natural protein, mouse, UniProt Q02248 1-781, looked up)", "chain": "MATQADLMELDMAMEPDRKAAVSHWQQQSYLDSGIHSGATTTAPSLSGKGNPEEEDVDTSQVLYEWEQGFSQSFTQEQVADIDGQYAMTRAQRVRAAMFPETLDEGMQIPSTQFDAAHPTNVQRLAEPSQMLKHAVVNLINYQDDAELATRAIPELTKLLNDEDQVVVNKAAVMVHQLSKKEASRHAIMRSPQMVSAIVRTMQNTNDVETARCTAGTLHNLSHHREGLLAIFKSGGIPALVKMLGSPVDSVLFYAITTLHNLLLHQEGAKMAVRLAGGLQKMVALLNKTNVKFLAITTDCLQILAYGNQESKLIILASGGPQALVNIMRTYTYEKLLWTTSRVLKVLSVCSSNKPAIVEAGGMQALGLHLTDPSQRLVQNCLWTLRNLSDAATKQEGMEGLLGTLVQLLGSDDINVVTCAAGILSNLTCNNYKNKMMVCQVGGIEALVRTVLRAGDREDITEPAICALRHLTSRHQEAEMAQNAVRLHYGLPVVVKLLHPPSHWPLIKATVGLIRNLALCPANHAPLREQGAIPRLVQLLVRAHQDTQRRTSMGGTQQQFVEGVRMEEIVEGCTGALHILARDVHNRIVIRGLNTIPLFVQLLYSPIENIQRVAAGVLCELAQDKEAAEAIEAEGATAPLTELLHSRNEGVATYAAAVLFRMSEDKPQDYKKRLSVELTSSLFRTEPMAWNETADLGLDIGAQGEALGYRQDDPSYRSFHSGGYGQDALGMDPMMEHEMGGHHPGADYPVDGLPDLGHAQDLMDGLPPGDSNQLAWFDTDL", "notes": "β-catenin, full length; also called GST-β-catenin; GST-tagged β-catenin"}}, "target": "T1, M. musculus αT-catenin (wild type, full length) (M. musculus, UniProt Q65CL1 1-895)", "T1 construct": "Cloned into pGEX-TEV; cleaved from GST with tobacco etch virus protease; also called αT (testes)-catenin; WT αT-catenin; source: E. coli BL21(DE3), purified (glutathione-agarose, TEV cleavage, Mono Q, S200 gel filtration)", "T1 sequence (looked up)": "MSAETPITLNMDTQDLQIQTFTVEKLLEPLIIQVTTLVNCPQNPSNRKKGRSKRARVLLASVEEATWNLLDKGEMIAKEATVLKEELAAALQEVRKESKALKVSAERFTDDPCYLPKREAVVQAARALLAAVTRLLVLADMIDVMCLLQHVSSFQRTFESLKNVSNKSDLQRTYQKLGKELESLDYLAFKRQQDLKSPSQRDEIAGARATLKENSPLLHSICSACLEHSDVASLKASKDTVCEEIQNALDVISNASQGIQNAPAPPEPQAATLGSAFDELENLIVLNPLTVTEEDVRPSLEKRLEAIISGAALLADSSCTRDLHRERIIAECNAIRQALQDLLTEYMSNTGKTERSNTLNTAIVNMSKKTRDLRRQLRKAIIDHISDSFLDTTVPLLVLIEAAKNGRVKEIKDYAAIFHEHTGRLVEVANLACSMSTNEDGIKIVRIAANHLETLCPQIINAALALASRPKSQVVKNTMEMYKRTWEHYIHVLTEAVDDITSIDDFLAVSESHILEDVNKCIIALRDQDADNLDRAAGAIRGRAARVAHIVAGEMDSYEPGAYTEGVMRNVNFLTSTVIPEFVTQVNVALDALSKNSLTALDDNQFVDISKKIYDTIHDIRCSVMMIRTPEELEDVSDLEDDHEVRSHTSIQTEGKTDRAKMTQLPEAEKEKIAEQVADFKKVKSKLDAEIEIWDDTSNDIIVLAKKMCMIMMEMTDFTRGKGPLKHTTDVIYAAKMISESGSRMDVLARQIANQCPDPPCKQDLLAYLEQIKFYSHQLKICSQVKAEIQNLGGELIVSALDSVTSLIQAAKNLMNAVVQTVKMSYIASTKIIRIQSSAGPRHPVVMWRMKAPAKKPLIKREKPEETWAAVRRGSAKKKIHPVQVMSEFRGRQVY", "assay": "pull-down; 1-15 μg αT-catenin or V94D added to 15 μg GST-β-catenin on glutathione-agarose in 20 mM Tris pH 8, 150 mM NaCl, 5 mM DTT; >2 h at 4 °C (legend: 1 h at room temperature); five washes in PBS + 0.05% Tween 20, 5 mM DTT; Coomassie", "settings": "both partners purified"}
{"binder": "B1", "values": [{"measurement": "binding result", "value": "binds"}]}
